“Also recorded” adds a separate entry of the source.
Legend:
[1] = system: Ba/F3 cells expressing BCR-ABL1T315I; experiment: Proliferation of transfected Ba/F3 BCR-ABL1 T315I cells (MTS assay); format: cell-based, mouse; conditions: CCmut3 vs EV; for proliferation, in words: MTS assay at 72 and 96 h
Procedure: Stable recombinant Ba/F3 cells transduced with wild type p210 BCR-ABL1 (Daley, G. Q., et al. (1991) Proc. Natl. Acad. Sci. U.S.A. 88, 11335-11338), the kinase domain mutants p210^T315I p210^[…], or the compound mutant p210^E255V/T315I were as previously described (La Rosee, P., et al. (2002) Cancer Res. 62, 7149-7153; O'Hare, T., et al. (2004) Blood 104, 2532-2539). These cells were cultured in RPMI with 10% FBS, 1% penicillin, streptomycin, glutamine, and 0.1% gentamycin (RPMI1640). Additionally 0.1% MycoZap™ (Lonza Bio, Basel, Switzerland) was added to prevent mycoplasma contamination. The non-transduced parental Ba/F3 cell line was grown in RPMI1640 supplemented with 20% WEHI-3B conditioned medium as a source of murine IL-3 (Dexter, T. M., et al. (1980) J. Exp. Med. 152, 1036-1047). Ba/F3 cells were transfected with plasmid DNA using the Amaxa nucleofection system (Lonza Bio), following the manufacturer's instructions. Cells were sorted on a BD FACSAria cytometer (BD Biosciences, San Jose, Calif.) for double-positive cells expressing mCherry and GFP then returned to RPMI1640 for subsequent experiments.
Cell proliferation was assessed using the CellTiter 96® AQueous One Solution Cell Proliferation Assay (MTS assay, Promega) according to manufacturer instructions. Briefly, 5,000 viable cells were added to a single well in 96-well plate in 100 μL RPMI1640. Three independent samples were seeded in duplicate for each time point. […] In some experiments, cell proliferation was assessed using a Neubauer chamber and trypan blue dye exclusion.
Stable Ba/F3 cells transduced with native (p210) BCR-ABL1, the kinase domain mutants BCR-ABL1T315I, BCR-ABL1E255V, or the compound mutant BCR-ABL1E255V/T315I were cultured. […]
Cell proliferation was assessed using a […] viability assay (MTS assay) utilizing CellTiter 96® AQueous One Solution Cell Proliferation Assay (Promega) according to manufacturer instructions. […] Cell growth was assessed by MTS assay at 72 and 96 h. […] In patient sample experiments, cell proliferation was assessed by trypan blue exclusion.

K562 cells = experiment: Colony forming assay of transfected K562 cells; format: cell-based, human; conditions: for colony formation (transformative ability), in words: construct delivered as a gene by transfection, vs EGFP (and WT) control
Procedure: Both EGFP and EGFP-CC^mut3 were transfected into separate groups of cells on day 0. One day following transfection, 1.0×10^6 cells per treatment group were collected and re-suspended in 1.0 mL of PBS. Through serial dilutions, 1.0×10^3 cells in IMDM (Isocove's modified Dulbecco's media) with 2% FBS were seeded into methylcellulose medium in the absence of cytokines (MethoCult H4230 for K562 cells and MethoCult M3234 for p210 and p210-T315I cells) or in the presence of cytokines (MethoCult GF M3434 for parental Ba/F3 cells). Ponatinib was then added in the correct molar amounts (0, 100 pM, 1 nM, or 10 nM) to the methylcellulose medium. Colonies formed were counted after 7 days of incubation. All reagents were purchased from Stem Cell Technologies, Vancouver, BC, Canada. Assay was run three separate times (n=3) in duplicate.
(§1) Briefly, K562 or Ba/F3-p210 cells were transfected according to the protocol above. One day following transfection, 1.0×10^6 cells per transfection group were collected and re-suspended in sterile PBS. […] Finally, 1.1 mL of cell/methylcellulose mixture was seeded in duplicate and allowed to grow at 37° C. and 5% CO2 for 7 days. Colony formation was assessed by counting colonies in two 200 μm2 areas on the plate. Experiments were performed once in duplicate (n=1 in duplicate). All kit reagents and media were purchased from Stem Cell Technologies (Vancouver, BC, Canada).

[2] = system: Ba/F3 cells expressing native BCR-ABL1 (Ba/F3-p210); experiment: Colony forming assay of transfected Ba/F3-p210 cells; format: cell-based, mouse; conditions: CCmut3 alone vs EV or EGFP control
Procedure: as §1

[3] = system: Ba/F3 cells expressing BCR-ABL1E255V/T315I; experiment: Annexin V/7-AAD apoptosis assay in Ba/F3 BCR-ABL1 E255V/T315I cells; format: cell-based, mouse; conditions: 72 h, CCmut3 vs EV
Procedure: (§2) For analysis of apoptosis and cell death, cells were pelleted and resuspended in Annexin V-binding buffer (BD Biosciences), stained with anti-Annexin V-APC (BD Biosciences or Life Technologies) and 7-AAD (BD Biosciences or Life Technologies) and analyzed on a BD FACSCanto flow cytometer. In addition to the APC and 7-AAD channels, GFP- and mCherry-positive cells were also recorded.
as §2, with “apoptosis and necrotic cell death,” for “apoptosis and cell death,”, “anti-Annexin V-APC and 7-AAD” for “anti-Annexin V-APC (BD Biosciences or Life Technologies) and 7-AAD”

B1: CCmut3: modified Bcr-Abl coiled-coil domain (residues 1-72) with mutations C38A, K39E, S41R, L45D, E48R, Q60E (protein)
chain: MVDPVGFAEAWKAQFPDSEPPRMELRSVGDIEQELERAEARIRRDEQRVNQERFRMIYLETLLAKEKKSYDR
reduction of proliferation ([1]; 96 h, MTS assay): approximately 3 fold
proliferation, in words [1]: significant reduction of proliferative capacity; also recorded: lesser, yet significant difference was noted at the 72 h time point
proliferation, in words ([1]; listed as CC^mut3): significant reduction
colony formation, of EGFP control (K562 cells; 7 days after seeding, normalized to EGFP control, n=1 in duplicate): approximately 20%
decrease in the amount of colonies formed compared to EGFP (K562 cells; CC^mut3 alone, no ponatinib, 7 days): 3 fold
colony formation (transformative ability), in words (K562 cells): showed inhibitory activity
colony formation (transformative ability), in words (K562 cells; listed as CC^mut3): inhibits colony formation; also recorded: significantly greater inhibition
colony formation, in words [2]: greatly reduced; also recorded: nearly eliminated colony forming ability
colony formation, in words ([2]; listed as CC^mut3): greatly reduced; also recorded: nearly eliminated CFCs; also recorded: significantly lower than the EGFP control
apoptosis, in words [3]: Enhanced apoptosis; also recorded: effectively induced apoptosis
apoptosis, in words ([3]; listed as CC^mut3): significantly more apoptotic; also recorded: sensitive
